The text below walks through data of patent US20260285964 (published 2026).

One assay addresses T1, mouse IL-36R (IL-1Rrp2) (mouse, UniProt Q9ERS7).
T1 chain: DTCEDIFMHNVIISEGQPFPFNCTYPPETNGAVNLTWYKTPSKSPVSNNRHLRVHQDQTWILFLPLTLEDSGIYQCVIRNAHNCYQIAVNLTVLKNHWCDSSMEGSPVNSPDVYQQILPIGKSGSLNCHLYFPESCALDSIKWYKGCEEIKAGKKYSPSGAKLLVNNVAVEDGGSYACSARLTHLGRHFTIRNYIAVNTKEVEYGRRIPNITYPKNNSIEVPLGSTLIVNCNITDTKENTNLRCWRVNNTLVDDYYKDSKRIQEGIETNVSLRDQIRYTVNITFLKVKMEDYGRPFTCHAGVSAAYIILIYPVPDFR

The next assay has as its target T2, rat IL-36R (rat, UniProt Q62929).
T2 chain: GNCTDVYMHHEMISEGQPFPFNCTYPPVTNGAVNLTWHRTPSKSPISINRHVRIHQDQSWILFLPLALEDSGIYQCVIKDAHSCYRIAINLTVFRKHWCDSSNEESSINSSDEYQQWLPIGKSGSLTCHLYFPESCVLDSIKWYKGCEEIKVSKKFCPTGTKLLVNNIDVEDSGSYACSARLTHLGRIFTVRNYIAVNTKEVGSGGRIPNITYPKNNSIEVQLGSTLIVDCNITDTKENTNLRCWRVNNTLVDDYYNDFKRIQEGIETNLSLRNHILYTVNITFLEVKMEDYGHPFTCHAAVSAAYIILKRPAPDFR

B1: HB0034 (antibody, V domains shown)
VH: QVQLVQSGAEVKKPGASVKVSCKASGYTFTSSWMHWAKQAPGQGLEWIGEIHPNSAKTNYNQKFQGRVTMTRDTSISTAYMELSRLRSDDTAVYYCARVDYGKPWFAYWGQGTLVTVSS
VL: QIVLTQSPGTLSLSPGERATLSCRASSSVSSSYLHWYQQKPGQAPRLWIYSTSSRATGIPDRFSGSGSGTDFTLTISRLEPEDFATYYCQQFQSSPLTFGQGTKLEIK
On to B1, for which the binding result in the assay with mouse IL-36R (IL-1Rrp2) and with rat IL-36R was “no binding” in each case.
